{"source": "patent US12280121B2", "about": "“Immunoconjugates and methods” (Immunome, Inc., priority 2021, dated 2025)", "molecules": {"B1": {"name": "VLS-101 (conjugate, chains of the INN, looked up)", "VH": "QVQLQESGPGLVKPSQTLSLTCTVSGYAFTAYNIHWVRQAPGQGLEWMGSFDPYDGGSSYNQKFKDRLTISKDTSKNQVVLTMTNMDPVDTATYYCARGWYYFDYWGHGTLVTVSS", "VL": "DIVMTQTPLSLPVTPGEPASISCRASKSISKYLAWYQQKPGQAPRLLIYSGSTLQSGIPPRFSGSGYGTDFTLTINNIESEDAAYYFCQQHDESPYTFGEGTKVEIK", "modifications": "vedotin (MMAE) payload"}}, "test_system": "Jeko-1", "experiment": "CTG assay of ROR-1 ADCs and toxins, JeKo-1", "assay_type": "cell-based", "method": "FIG. 33 illustrates a CTG assay wherein ROR+ (JeKo-1) cells were incubated with the ADCs generated as described in FIG. 32 in serial three-fold dilutions and cell viability was assessed after 72 hours.\nThe CTG assay is a method of determining the number of viable cells in culture based on quantitation of the ATP present, an indicator of metabolically active cells. The cell assay requires the addition of a single reagent, Cell Titer Glo, in which cells are lysed and generation of a luminescent signal is produced. The luminescent signal is proportional to the amount of ATP present. The amount of ATP is directly proportional to the number of cells present in culture. For our assay, cells were ensured to be in log-phase for either Jeko-1 or MDA-MB-468. Cells were transferred to 96 wells and treated with compounds in three-fold serial dilution starting from 1 μM to 0.0000508 μM (10 points dilution), for 72 h. Cell viability was analyzed with CellTiter-Glo® Luminescent Cell Viability Assay (Promega) following manufactures' instruction. Percentage of viable cells in each compound concentration was determined by normalizing with the luminescence of vehicle control and plotted into percentage of viability versus dose response curve by nonlinear fit in GraphPad Prism software.\nNovel ROR-1 antibody-drug conjugates (ADCs) were evaluated by CTG Assay in a similar manner as was described in Example 24 for screening of payloads. […] Briefly ROR+(JeKo-1/MDA-MB-468) or ROR− (Ramos) cells were transferred to 96 wells and treated with the ADCs in three-fold serial dilution starting from […] (10 points dilution), for 72 h. Cell viability was analyzed with CellTiter-Glo® Luminescent Cell Viability Assay (Promega) following the manufactures' instructions (FIG. 33). The percentage of viable cells at each ADC concentration was determined by normalizing with the luminescence of vehicle control and plotted into percentage of viability versus dose response curve by nonlinear fit in GraphPad Prism software.", "note": "Like-named read-outs stand apart in the source and are kept apart here.", "data": [{"molecule": "B1", "values": [{"measurement": "IC50", "setting": "Jeko-1, average of run 1 and run 2, read-out: Avg. IC50", "result": 60.1, "unit": "nM"}, {"measurement": "IC50", "setting": "Jeko-1 P3, run 1, 72 h, read-out: Jeko-1 P3 (RUN1) IC50", "result": 63.4, "unit": "nM"}, {"measurement": "IC50", "setting": "Jeko-1 P4, run 2, 72 h, read-out: Jeko-1 P4 (RUN2) IC50", "result": 56.8, "unit": "nM"}]}]}
